Measured values from patent publication US10428140B2, “Anti-EphA4 antibody” (EISAI R&D MANAGEMENT CO., LTD., priority 2015, dated 2019).

Tested on: EphA4 autophosphorylation induced by mouse Ephrin A1
Test: In vivo competition assay using mouse newborns (EphA4 autophosphorylation in cerebral hemisphere)
Details: 8-day-old mouse, 300 mg/kg subcutaneous
Procedure: The in vivo competition assay using mouse newborns was conducted according to the following steps. PBS (Wako Pure Chemical Industries), antibody A, or a control antibody (mouse anti-dinitrophenol antibody) produced with a conventional procedure by immunizing […] with dinitrophenol was subcutaneously administered at a dose of 300 mg/kg (30 mL/kg) to each 8-day-old mouse (Charles River Laboratories Japan). After 24 hours, the scalp was incised under 4% isoflurane (Intervet) anesthesia, and mouse Ephrin A1-Fc chimera (300 pmol/head, R&D Systems) or PBS (Wako Pure Chemical Industries) was administered into the lateral ventricle. 1 hour thereafter, the mouse was euthanized by decapitation, followed by the extirpation of the cerebral hemisphere. […] 3×SDS sample buffer was added to a portion of the homogenate, which was then boiled for 10 minutes, followed by protein quantification. […] The remaining homogenate was subjected to protein quantification and then dispensed in an amount corresponding to 3 mg of protein, and 1% Triton X-100 (Wako Pure Chemical Industries) and 0.1% SDS (Nacalai Tesque) were added thereto. […] Western blotting using an anti-EphA4 monoclonal antibody (Abnova) was further performed, and band intensity was quantified to calculate a value of phosphorylated EphA4/total EphA4. […]

B1: antibody A: mouse anti-EphA4 monoclonal antibody, IgG1/κ; heavy chain variable region SEQ ID NO: 11, light chain variable region SEQ ID NO: 13 (antibody, listed as Mus musculus, V domains shown)
VH: QIQLVQSGPELKKPGETVKISCKASGYTFTDYSMHWVKQAPGKGLKWMGWINTETGEPTYADDFKGRFAFSLETSASTAYLQINNLKNEDTATYFCARIPLYYYGSRYWYFDVWGAGTTVTVSS
VL: DIQMTQSPASLSVSVGETVTITCRASENIYRNLAWYQQKQGKSPQLLVYAATNLADGVPSRFSGSGSGTQYSLKINSLQSEDFGSYYCQHFWGTPWTFGGGTKLEIK
In the case of B1, the “suppression of mouse EphrinA1-induced EphA4 autophosphorylation” value is reported as 66%.
